Reference: US7888025B2, “Intestinal folate transporter method” (Albert Einstein College of Medicine of Yeshiva University, priority 2007, dated 2011)
Positions count from the first letter of the chain named. In names and notes the source's numbering stands. Where two headings read alike, the source gives them in different places.

Tests used:
[1] = target: T1, reduced folate carrier (SLC19A1) (Homo sapiens, UniProt P41440); conditions: cited from earlier work
T1 sequence (P41440 1-591): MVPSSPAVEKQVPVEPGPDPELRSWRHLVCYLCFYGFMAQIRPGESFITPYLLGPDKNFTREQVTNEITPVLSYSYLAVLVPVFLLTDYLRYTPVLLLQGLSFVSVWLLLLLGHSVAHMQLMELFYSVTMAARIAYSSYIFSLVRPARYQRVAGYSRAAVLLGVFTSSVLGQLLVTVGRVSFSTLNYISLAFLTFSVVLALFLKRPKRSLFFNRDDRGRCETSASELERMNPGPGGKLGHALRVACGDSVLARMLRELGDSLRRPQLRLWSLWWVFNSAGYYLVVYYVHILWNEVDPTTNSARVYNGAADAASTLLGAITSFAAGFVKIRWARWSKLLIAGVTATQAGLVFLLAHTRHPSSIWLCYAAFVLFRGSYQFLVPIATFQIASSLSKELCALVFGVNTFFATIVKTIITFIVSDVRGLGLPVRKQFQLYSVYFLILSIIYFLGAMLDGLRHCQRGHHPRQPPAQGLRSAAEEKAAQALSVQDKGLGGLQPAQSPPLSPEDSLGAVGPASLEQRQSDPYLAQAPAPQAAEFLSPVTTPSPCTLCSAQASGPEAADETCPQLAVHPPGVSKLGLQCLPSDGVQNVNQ

G21 (PCFT) = target: T2, G21 (PCFT) (Homo sapiens, UniProt Q96NT5); assay: Inhibition of [3H]folic acid uptake into G21 cRNA-injected Xenopus oocytes; assay type: cell-based; conditions: 20 μM nonlabeled compound, pH 5.5, 30 min
T2 construct: expressed in transfected cells; host or cells: Xenopus laevis oocytes injected with capped G21 cRNA (pSPT64, SP6)
T2 sequence (Q96NT5 1-459): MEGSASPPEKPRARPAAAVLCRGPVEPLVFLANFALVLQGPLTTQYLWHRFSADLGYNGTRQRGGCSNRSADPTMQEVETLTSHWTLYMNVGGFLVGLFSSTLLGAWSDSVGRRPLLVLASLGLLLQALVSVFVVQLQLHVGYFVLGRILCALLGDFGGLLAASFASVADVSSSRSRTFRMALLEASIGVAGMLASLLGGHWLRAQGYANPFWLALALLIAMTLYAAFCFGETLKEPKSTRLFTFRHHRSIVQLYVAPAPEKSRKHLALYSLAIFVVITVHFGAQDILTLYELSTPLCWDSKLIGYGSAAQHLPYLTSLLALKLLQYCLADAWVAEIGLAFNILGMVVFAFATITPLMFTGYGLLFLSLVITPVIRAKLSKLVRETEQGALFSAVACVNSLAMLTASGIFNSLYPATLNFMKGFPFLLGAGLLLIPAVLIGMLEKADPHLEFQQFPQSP
Method: Uptake studies in Xenopus oocytes. […] Radiotracer uptake was determined 3 or 4 days later. […] Uptake was halted by the addition of ice-cold MBS (pH 7.5). Oocytes were washed 10 times thereafter, and solubilized with 10% SDS for measurement of radioactivity. To collapse the pH gradient across the oocyte membrane, seven to 10 oocytes were incubated in MBS (pH 5.5) containing 0, 10, 20, 40, 60 μM FCCP for 20 min, and uptake of transport substrates assessed at pH 5.5.

[2] = target: T3, low-pH folate transporter (Homo sapiens, UniProt Q96NT5); conditions: cited from earlier work
T3 construct: host or cells: HeLa and other cells
T3 sequence (Q96NT5 1-459): T2 sequence (Q96NT5 1-459)

[3] = target: rat jejunum brush border membranes; conditions: read-out: Ki, competitive inhibition of folic acid uptake; cited from earlier work
[4] = substrate: Nc1nc2ncc(CNc3ccc(C(=O)N[C@@H](CCC(=O)O)C(=O)O)cc3)nc2c(=O)[nH]1; assay: Uptake of tritiated folates in G21 cRNA-injected Xenopus oocytes; assay type: cell-based, human
Method: Uptake studies in Xenopus oocytes. Defolliculated Xenopus laevis oocytes were prepared as described (Jansen and Akabas, 2006) and injected with 50 nl of water or G21 cRNA (30 ng). Radiotracer uptake was determined 3 or 4 days later. Seven to 10 oocytes were incubated in 500 μl of Modified Barth's Solution (MBS, in mM, 88 NaCl, 2.4 NaHCO3, 2.5 Na pyruvate, 1 KCl, 0.82 MgSO4, 0.41 CaCl2, 0.3 Ca(NO3)2, 15 MES or HEPES) and uptake of tritiated folate substrates assessed at room temperature. Uptake was halted by the addition of ice-cold MBS (pH 7.5). Oocytes were washed 10 times thereafter, and solubilized with 10% SDS for measurement of radioactivity. To collapse the pH gradient across the oocyte membrane, seven to 10 oocytes were incubated in MBS (pH 5.5) containing 0, 10, 20, 40, 60 μM FCCP for 20 min, and uptake of transport substrates assessed at pH 5.5.

[5] = substrate: Nc1nc2ncc(CNc3ccc(C(=O)N[C@@H](CCC(=O)O)C(=O)O)cc3)nc2c(=O)[nH]1; assay: Two-electrode voltage-clamp electrophysiology in G21 cRNA-injected Xenopus oocytes; assay type: cell-based, human; conditions: 17.0 °C
Method: Electrophysiological analyses in Xenopus oocytes. Defolliculated oocytes were injected with 50 nl of water (control) or G21 cRNA (50 ng), and kept at 17° C. in horse serum medium (in mM, 82.5 NaCl, 2.5 KCl, 1 MgCl2, 2.3 CaCl2, 5 HEPES, 5% horse serum, pH 7.5). Electrophysiological recordings were conducted 3-7 days after cRNA injection in buffer (in mM, 90 NaCl, 1 KCl, 1 MgCl2, 1.8 CaCl2, 5 TRIS, 5 MES) as described previously (Jansen and Akabas, 2006). Oocyte holding potential was −80 mV for Km determination. For current-voltage (I-V) relationships, from a −60 mV holding potential step changes in membrane potential were applied for 2 s in 10 mV increments between −100 and 30 mV in the absence and presence of substrate.

[6] = substrate: CN(Cc1cnc2nc(N)nc(N)c2n1)c1ccc(C(=O)N[C@@H](CCC(=O)O)C(=O)O)cc1; assay: cells, lysate or membranes
PCFT = assay: [3H](6S)5-methylTHF uptake in HeLa cells transiently transfected with mutated PCFT cDNA; assay type: cell-based, human; conditions: 0.5 μM, pH 5.5, 37° C., 2 min, transiently transfected HeLa cells
Text: Analysis of G21 in a family with hereditary folate malabsorption. Members of a family with hereditary folate malabsorption were studied according to a protocol and Informed Consent in the subjects' native language approved by the Albert Einstein College of Medicine IRB (CCI#2006-279). Whole blood was used for isolation of genomic DNA by a Genomic DNA Purification Kit (Gentra Systems, Minneapolis, Minn.) and to generate EBV-transformed human B-lymphoblastoid cell lines in the Einstein Human Genetics Cell Culture Core. Each G21 exon with flanking regions was amplified using Taq DNA polymerase, Q-solution (Qiagen, Valencia, Calif.) and primers listed in Table 4. G21 or RFC cDNA were amplified from lymphoblastoid cells by RT-PCR. PCR products were gel-purified and sequenced in an ABI 3730 DNA Analyzer (Applied Biosystems). The mutated region was verified by sequencing both DNA strands. An expression vector of the mutated G21 in which exon 3 was skipped (GenBank accession number: BC010691) was purchased from Open Biosystems and, along with pcDNA3.1(+)G21 (wild type), was used for an assay of transport function. Western blot analysis on whole cell lysate and cellular localization was performed as described above.
Site-directed mutagenesis. PCFT cDNA was cloned in pCDNA 3.1 (+) and mutations in the coding region were introduced by site-directed mutagenesis using PfuTurbo® DNA polymerase (Stratagene, La Jolla, Calif.) as described previously (Zhao et al., 2000). The entire PCFT coding region in the plasmid was sequenced to verify the presence of the mutation.
Transient transfections and assessment of 5-methylTHF transport. Plasmid concentrations were determined by UV absorption and verified by agarose gel analysis. HeLa cells were seeded and transiently transfected in 20 ml glass scintillation vials (Research Products International Corp., Mt. Prospect, Ill.) and after two days, [^3H]5-methylTHF uptake was assessed (Qiu et al., 2006). EBV-transformed B-lymphoblastoid cells, generated from blood (P6 and P7), were washed twice with, and resuspended in, unbuffered saline (160 mM NaCl, 5 mM KCl, 2 mM MgCl2, 5 mM glucose). Uptake was initiated by injection of the cell suspension into MES-buffered saline (pH 5.5) containing 0.5 μM [^3H]5-methylTHF. Surface binding was assessed by measuring [^3H]5-methylTHF associated with cells at 0° C. and the bound component was subtracted from total uptake.

[7] = other: extracellular pH 5.5, pH 5.5
[8] = other: extracellular pH 6.0, pH 6.0
[9] = other: extracellular pH 6.5, pH 6.5
[10] = other: extracellular pH 7.0, pH 7.0
[11] = other: extracellular pH 7.5, pH 7.5

Question: For `Nc1nc(N)c2nc(CNc3ccc(C(=O)N[C@@H](CCCNC(=O)c4ccccc4C(=O)O)C(=O)O)cc3)cnc2n1` [PT523], which Ki [1] is on record?
Answer: ~700 nM

Question: And the “inhibitory effect on uptake of 2 μM [3H]folic acid” value (G21 (PCFT))?
Answer: did not inhibit

Question: And the Ki ([2]; HeLa and other cells)?
Answer: > 50000 nM

Question: And the Ki ([2]; pH 5.5, intestinal and other human cells)?
Answer: > 50000 nM

Question: For `CN1c2c(nc(N)[nH]c2=O)NCC1CNc1ccc(C(=O)N[C@@H](CCC(=O)O)C(=O)O)cc1` (mixture of isomers) [racemic 5-MTHF], which Ki [3] is on record?
Answer: 1400 nM

B1: G21 (PCFT) (Homo sapiens) (protein)
chain: T2 sequence (Q96NT5 1-459)
notes: expressed in transfected cells; host or cells: Xenopus laevis oocytes injected with capped G21 cRNA (pSPT64, SP6)
Question: For B1, which Km [4, 7] is on record?
Answer: 1.3 ± 0.1 µM

Question: What about the Km [4, 8] of the same molecule?
Answer: 1.5 ± 0.1 (n = 2) μM

Question: What about the Km [4, 9] of the same molecule?
Answer: 2.7 ± 0.2 (n = 3) μM

Question: What about the Km [4, 10] of the same molecule?
Answer: 6.0 ± 2.6 (n = 2) μM

Question: What about the Km [4, 11] of the same molecule?
Answer: 56.2 ± 5.6 µM

Question: What about the Km ([5]; other: pH 5.5, holding potential −80 mV, pH 5.5) of the same molecule?
Answer: 0.83 ± 0.05 µM

Question: What about the Km ([5]; other: pH 6.5, holding potential −80 mV, pH 6.5) of the same molecule?
Answer: 2.99 ± 0.09 µM

Question: What about the Km [6, 7] of the same molecule?
Answer: 3.4 ± 0.8 (n = 3) μM

Question: And the Km [6, 8]?
Answer: 3.4 ± 0.5 (n = 3) μM

Question: What about the Km [6, 9] of the same molecule?
Answer: 7.3 ± 0.6 (n = 3) μM

Question: And the Km [6, 10]?
Answer: 16.3 ± 2.8 (n = 4) μM

Question: What about the Km [6, 11] of the same molecule?
Answer: 130.7 ± 11.6 (n = 3) μM

Question: What about the Km ([6]; other: pH 5.5, holding potential −80 mV, pH 5.5, 17.0 °C) of the same molecule?
Answer: 2.01 ± 0.16 µM

Question: What about the Km ([6]; other: pH 6.5, holding potential −80 mV, pH 6.5, 17.0 °C) of the same molecule?
Answer: 8.07 ± 0.60 µM

B2: S318R: human PCFT mutant protein (protein, UniProt Q96NT5 1-459, looked up, variant S318R)
Proton-coupled folate …: T2 sequence (Q96NT5 1-459) with S318R
Question: With B2 as the molecule, how does the “[3H](6S)5-methylTHF uptake (transport function)” value (PCFT) read?
Answer: essentially no uptake

B3: mutated G21 carrier: exon 3-deleted G21 (PCFT) protein, in-frame deletion of 28 amino acids (protein, listed as Homo sapiens)
chain: MEGSASPPEKPRARPAAAVLCRGPVEPLVFLANFALVLQGPLTTQYLWHRFSADLGYNGTRQRGGCSNRSADPTMQEVETLTSHWTLYMNVGGFLVGLFSSTLLGAWSDSVGRRPLLVLASLGLLLQALVSVFVVQLQLHVGYFVLGRILCALLGDFGGLLAASFASVADVSSSRSRTFRMALLEASIGVAGMLASLLGGHWLRAQGYANPFWLALALLIAMTLYAAFCFGETLKEPKSTRLFTFRHHRSIVQLYVAPAPEKSRKHLALYSLAIFVVITVHFGAQDILTLYELSTPLCWDSKLIGYGSAAQHLPYLTSLLALKLLQYCLADAWVAEIGLAFNILGMVVFAFATITPLMFTGALFSAVACVNSLAMLTASGIFNSLYPATLNFMKGFPFLLGAGLLLIPAVLIGMLEKADPHLEFQQFPQSP
Question: Which “[3H](6S)5-methylTHF uptake (transport function)” value (PCFT) does the source give for B3 here?
Answer: lacked transport function
